Results from patent US20260049138A1 (Chugai, published 2026).

B1: GLS3000 G89W one-arm antibody (antibody, human IgG1, kappa, L234A L235A, N297A, name in Kabat numbering)
heavy: QVQLVESGGGVVQPGRSLRLSCAASGFTFSNAWMHWVRQAPGKGLEWVAQIKAKSNNYATYYAESVKGRFTISRDDSKNSLYLQMNSLKTEDTAVYYCRYVHYGAYYGVDAWGQGTTVTVSSASTKGPSVFPLAPSSKSTSGGTAALGCLVKDYFPEPVTVSWNSGALTSGVHTFPAVLQSSGLYSLSSVVTVPSSSLGTQTYICNVNHKPSNTKVDKKVEPKSCDKTHTCPPCPAPEAAGGPSVFLFPPKPKDTLMISRTPEVTCVVVDVSHEDPEVKFNWYVDGVEVHNAKTKPREEQYASTYRVVSVLTVLHQDWLNGKEYKCKVSNKALPAPIEKTISKAKGQPREPQVYTLPPSRCELTKNQVSLSCAVKGFYPSDIAVEWESNGQPENNYKTTPPVLDSDGSFFLVSKLTVDKSRWQQGNVFSCSVMHEALHNHYTQKSLSLSPDYKDDDDK
chain: EPKSSDKTHTCPPCPAPELLGGPSVFLFPPKPKDTLMISRTPEVTCVVVDVSHEDPEVKFNWYVDGVEVHNAKTKPREEQYNSTYRVVSVLTVLHQDWLNGKEYKCKVSNKALPAPIEKTISKAKGQPREPQVCTLPPSRDELTKNQVSLWCLVKGFYPSDIAVEWESNGQPENNYKTTPPVLDSDGSFFLYSKLTVDKSRWQQGNVFSCSVMHEALHNRYTQKSLSLSP
light: DIVMTQSPLSLPVTPGEPASISCRSSQSLVHSNRNTYLHWYQQKPGQAPRLLIYKVSNRFSGVPDRFSGSGSGTDFTLKISRVEAEDVGVYYCWQGTQVPYTFGQGTKLEIKRTVAAPSVFIFPPSDEQLKSGTASVVCLLNNFYPREAKVQWKVDNALQSGNSQESVTEQDSKDSTYSLSSTLTLSKADYEKHKVYACEVTHQGLSSPVTKSFNRGEC
B2: GLS3000 G89Y one-arm antibody (antibody, human IgG1, kappa, L234A L235A, N297A, name in Kabat numbering)
heavy: QVQLVESGGGVVQPGRSLRLSCAASGFTFSNAWMHWVRQAPGKGLEWVAQIKAKSNNYATYYAESVKGRFTISRDDSKNSLYLQMNSLKTEDTAVYYCRYVHYGAYYGVDAWGQGTTVTVSSASTKGPSVFPLAPSSKSTSGGTAALGCLVKDYFPEPVTVSWNSGALTSGVHTFPAVLQSSGLYSLSSVVTVPSSSLGTQTYICNVNHKPSNTKVDKKVEPKSCDKTHTCPPCPAPEAAGGPSVFLFPPKPKDTLMISRTPEVTCVVVDVSHEDPEVKFNWYVDGVEVHNAKTKPREEQYASTYRVVSVLTVLHQDWLNGKEYKCKVSNKALPAPIEKTISKAKGQPREPQVYTLPPSRCELTKNQVSLSCAVKGFYPSDIAVEWESNGQPENNYKTTPPVLDSDGSFFLVSKLTVDKSRWQQGNVFSCSVMHEALHNHYTQKSLSLSPDYKDDDDK
chain: EPKSSDKTHTCPPCPAPELLGGPSVFLFPPKPKDTLMISRTPEVTCVVVDVSHEDPEVKFNWYVDGVEVHNAKTKPREEQYNSTYRVVSVLTVLHQDWLNGKEYKCKVSNKALPAPIEKTISKAKGQPREPQVCTLPPSRDELTKNQVSLWCLVKGFYPSDIAVEWESNGQPENNYKTTPPVLDSDGSFFLYSKLTVDKSRWQQGNVFSCSVMHEALHNRYTQKSLSLSP
light: DIVMTQSPLSLPVTPGEPASISCRSSQSLVHSNRNTYLHWYQQKPGQAPRLLIYKVSNRFSGVPDRFSGSGSGTDFTLKISRVEAEDVGVYYCYQGTQVPYTFGQGTKLEIKRTVAAPSVFIFPPSDEQLKSGTASVVCLLNNFYPREAKVQWKVDNALQSGNSQESVTEQDSKDSTYSLSSTLTLSKADYEKHKVYACEVTHQGLSSPVTKSFNRGEC
B3: GLS3000 G91A one-arm antibody (antibody, human IgG1, kappa, L234A L235A, N297A, name in Kabat numbering)
heavy: QVQLVESGGGVVQPGRSLRLSCAASGFTFSNAWMHWVRQAPGKGLEWVAQIKAKSNNYATYYAESVKGRFTISRDDSKNSLYLQMNSLKTEDTAVYYCRYVHYGAYYGVDAWGQGTTVTVSSASTKGPSVFPLAPSSKSTSGGTAALGCLVKDYFPEPVTVSWNSGALTSGVHTFPAVLQSSGLYSLSSVVTVPSSSLGTQTYICNVNHKPSNTKVDKKVEPKSCDKTHTCPPCPAPEAAGGPSVFLFPPKPKDTLMISRTPEVTCVVVDVSHEDPEVKFNWYVDGVEVHNAKTKPREEQYASTYRVVSVLTVLHQDWLNGKEYKCKVSNKALPAPIEKTISKAKGQPREPQVYTLPPSRCELTKNQVSLSCAVKGFYPSDIAVEWESNGQPENNYKTTPPVLDSDGSFFLVSKLTVDKSRWQQGNVFSCSVMHEALHNHYTQKSLSLSPDYKDDDDK
chain: EPKSSDKTHTCPPCPAPELLGGPSVFLFPPKPKDTLMISRTPEVTCVVVDVSHEDPEVKFNWYVDGVEVHNAKTKPREEQYNSTYRVVSVLTVLHQDWLNGKEYKCKVSNKALPAPIEKTISKAKGQPREPQVCTLPPSRDELTKNQVSLWCLVKGFYPSDIAVEWESNGQPENNYKTTPPVLDSDGSFFLYSKLTVDKSRWQQGNVFSCSVMHEALHNRYTQKSLSLSP
light: DIVMTQSPLSLPVTPGEPASISCRSSQSLVHSNRNTYLHWYQQKPGQAPRLLIYKVSNRFSGVPDRFSGSGSGTDFTLKISRVEAEDVGVYYCGQATQVPYTFGQGTKLEIKRTVAAPSVFIFPPSDEQLKSGTASVVCLLNNFYPREAKVQWKVDNALQSGNSQESVTEQDSKDSTYSLSSTLTLSKADYEKHKVYACEVTHQGLSSPVTKSFNRGEC
B4: GLS3000 G91D one-arm antibody (antibody, human IgG1, kappa, L234A L235A, N297A, name in Kabat numbering)
heavy: QVQLVESGGGVVQPGRSLRLSCAASGFTFSNAWMHWVRQAPGKGLEWVAQIKAKSNNYATYYAESVKGRFTISRDDSKNSLYLQMNSLKTEDTAVYYCRYVHYGAYYGVDAWGQGTTVTVSSASTKGPSVFPLAPSSKSTSGGTAALGCLVKDYFPEPVTVSWNSGALTSGVHTFPAVLQSSGLYSLSSVVTVPSSSLGTQTYICNVNHKPSNTKVDKKVEPKSCDKTHTCPPCPAPEAAGGPSVFLFPPKPKDTLMISRTPEVTCVVVDVSHEDPEVKFNWYVDGVEVHNAKTKPREEQYASTYRVVSVLTVLHQDWLNGKEYKCKVSNKALPAPIEKTISKAKGQPREPQVYTLPPSRCELTKNQVSLSCAVKGFYPSDIAVEWESNGQPENNYKTTPPVLDSDGSFFLVSKLTVDKSRWQQGNVFSCSVMHEALHNHYTQKSLSLSPDYKDDDDK
chain: EPKSSDKTHTCPPCPAPELLGGPSVFLFPPKPKDTLMISRTPEVTCVVVDVSHEDPEVKFNWYVDGVEVHNAKTKPREEQYNSTYRVVSVLTVLHQDWLNGKEYKCKVSNKALPAPIEKTISKAKGQPREPQVCTLPPSRDELTKNQVSLWCLVKGFYPSDIAVEWESNGQPENNYKTTPPVLDSDGSFFLYSKLTVDKSRWQQGNVFSCSVMHEALHNRYTQKSLSLSP
light: DIVMTQSPLSLPVTPGEPASISCRSSQSLVHSNRNTYLHWYQQKPGQAPRLLIYKVSNRFSGVPDRFSGSGSGTDFTLKISRVEAEDVGVYYCGQDTQVPYTFGQGTKLEIKRTVAAPSVFIFPPSDEQLKSGTASVVCLLNNFYPREAKVQWKVDNALQSGNSQESVTEQDSKDSTYSLSSTLTLSKADYEKHKVYACEVTHQGLSSPVTKSFNRGEC
B5: GLS3000 G91E one-arm antibody (antibody, human IgG1, kappa, L234A L235A, N297A, name in Kabat numbering)
heavy: QVQLVESGGGVVQPGRSLRLSCAASGFTFSNAWMHWVRQAPGKGLEWVAQIKAKSNNYATYYAESVKGRFTISRDDSKNSLYLQMNSLKTEDTAVYYCRYVHYGAYYGVDAWGQGTTVTVSSASTKGPSVFPLAPSSKSTSGGTAALGCLVKDYFPEPVTVSWNSGALTSGVHTFPAVLQSSGLYSLSSVVTVPSSSLGTQTYICNVNHKPSNTKVDKKVEPKSCDKTHTCPPCPAPEAAGGPSVFLFPPKPKDTLMISRTPEVTCVVVDVSHEDPEVKFNWYVDGVEVHNAKTKPREEQYASTYRVVSVLTVLHQDWLNGKEYKCKVSNKALPAPIEKTISKAKGQPREPQVYTLPPSRCELTKNQVSLSCAVKGFYPSDIAVEWESNGQPENNYKTTPPVLDSDGSFFLVSKLTVDKSRWQQGNVFSCSVMHEALHNHYTQKSLSLSPDYKDDDDK
chain: EPKSSDKTHTCPPCPAPELLGGPSVFLFPPKPKDTLMISRTPEVTCVVVDVSHEDPEVKFNWYVDGVEVHNAKTKPREEQYNSTYRVVSVLTVLHQDWLNGKEYKCKVSNKALPAPIEKTISKAKGQPREPQVCTLPPSRDELTKNQVSLWCLVKGFYPSDIAVEWESNGQPENNYKTTPPVLDSDGSFFLYSKLTVDKSRWQQGNVFSCSVMHEALHNRYTQKSLSLSP
light: DIVMTQSPLSLPVTPGEPASISCRSSQSLVHSNRNTYLHWYQQKPGQAPRLLIYKVSNRFSGVPDRFSGSGSGTDFTLKISRVEAEDVGVYYCGQETQVPYTFGQGTKLEIKRTVAAPSVFIFPPSDEQLKSGTASVVCLLNNFYPREAKVQWKVDNALQSGNSQESVTEQDSKDSTYSLSSTLTLSKADYEKHKVYACEVTHQGLSSPVTKSFNRGEC
B6: GLS3000 G91P one-arm antibody (antibody, human IgG1, kappa, L234A L235A, N297A, name in Kabat numbering)
heavy: QVQLVESGGGVVQPGRSLRLSCAASGFTFSNAWMHWVRQAPGKGLEWVAQIKAKSNNYATYYAESVKGRFTISRDDSKNSLYLQMNSLKTEDTAVYYCRYVHYGAYYGVDAWGQGTTVTVSSASTKGPSVFPLAPSSKSTSGGTAALGCLVKDYFPEPVTVSWNSGALTSGVHTFPAVLQSSGLYSLSSVVTVPSSSLGTQTYICNVNHKPSNTKVDKKVEPKSCDKTHTCPPCPAPEAAGGPSVFLFPPKPKDTLMISRTPEVTCVVVDVSHEDPEVKFNWYVDGVEVHNAKTKPREEQYASTYRVVSVLTVLHQDWLNGKEYKCKVSNKALPAPIEKTISKAKGQPREPQVYTLPPSRCELTKNQVSLSCAVKGFYPSDIAVEWESNGQPENNYKTTPPVLDSDGSFFLVSKLTVDKSRWQQGNVFSCSVMHEALHNHYTQKSLSLSPDYKDDDDK
chain: EPKSSDKTHTCPPCPAPELLGGPSVFLFPPKPKDTLMISRTPEVTCVVVDVSHEDPEVKFNWYVDGVEVHNAKTKPREEQYNSTYRVVSVLTVLHQDWLNGKEYKCKVSNKALPAPIEKTISKAKGQPREPQVCTLPPSRDELTKNQVSLWCLVKGFYPSDIAVEWESNGQPENNYKTTPPVLDSDGSFFLYSKLTVDKSRWQQGNVFSCSVMHEALHNRYTQKSLSLSP
light: DIVMTQSPLSLPVTPGEPASISCRSSQSLVHSNRNTYLHWYQQKPGQAPRLLIYKVSNRFSGVPDRFSGSGSGTDFTLKISRVEAEDVGVYYCGQPTQVPYTFGQGTKLEIKRTVAAPSVFIFPPSDEQLKSGTASVVCLLNNFYPREAKVQWKVDNALQSGNSQESVTEQDSKDSTYSLSSTLTLSKADYEKHKVYACEVTHQGLSSPVTKSFNRGEC

Molecular target: T1, CD3ε homodimer protein (human, UniProt P07766 23-126, limits assumed)
T1 construct: also called CD3 (CD3ε)
T1 sequence (P07766 23-126 limits assumed): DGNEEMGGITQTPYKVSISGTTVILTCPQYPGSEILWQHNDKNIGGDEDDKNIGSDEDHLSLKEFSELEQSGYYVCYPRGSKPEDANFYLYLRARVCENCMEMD
Assay: SPR Biacore T200, CD3ε homodimer on chip;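 note: Light-chain single-residue variant antibodies injected over amine-coupled CD3ε homodimer on a CM4 chip at 25 °C, bound amount divided by that of the GLS3000-containing antibody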

Binder | ratio of amount bound vs unaltered GLS3000
B1 | 0.5
B2 | 1.19
B3 | 0.27
B4 | 0.16
B5 | 0.16
B6 | 0.27
